Data published in the nanobody polyreactivity screen of Harvey et al. (2022).

Test: yeast display, Sf9 membrane polyspecificity reagent, FACS + sequencing; frameworks hold sequencing errors
Summary of the method: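 Galactose-induced (36–48 hours) yeast carrying a synthetic nanobody display library were exposed to 10% biotinylated, detergent-solubilized Sf9 membrane reagent at 4 °C for 1 hour. FACS followed streptavidin microbead enrichment, using low and high (top ~1%) gates for expression (anti-HA) and reagent binding (streptavidin). Colony PCR, MiSeq 2 × 250 sequencing and CDR-length filtering followed. Labels for polyreactivity reflect the gate of origin.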

## QVHLVESGGGLLLAGGSLRLTCAASGSTFYSYDKGWYRQAPGKERELVAAISWNGGSTYYEDSVKGRFTISRDNAKNTVYLPMNSLKPEDTAVYYCAALRYVHGYDYWGQGTQVSVSS
  polyreactivity (PSR sort gate): high polyreactivity

## QVHLVESGGGLLQAGGILSLSCAASGITIIVYVMGWYRQAPGKERELVATITYDDSTYADSVKGRFTISRDNAKNTVYFQMNSLKPEDTAVYYDYWGQGTQVTVSS
  polyreactivity (PSR sort gate): low polyreactivity

## QVHLVESGGGLLQAGGSLPLSCAASGSIFYSYAMGWYRQAPGKVRELVAVISWSGGSTYYADSVKGRFTISRDNAKNTVYLQMNSLKPEDTAVYYCAADQGWEFDYWGQCTQVTVSS
  polyreactivity (PSR sort gate): low polyreactivity

## QVHLVESGGGLLQAGGSLRLSCAASGSTFYSYAMGWYRQAPGKERELVAAITYSDGDTYYADSVKGRFTISRDNAKNTVYLQMNSLKPEDTAVYYCAAEYQGQPGTGNLEYWGQGTQVTVSS
  polyreactivity (PSR sort gate): low polyreactivity

## QVHLVESGGGLLQAGGSLRLSSAASGSTFPFNAMGWYRPAPGKERELVAAIDDNGGTTYYADSVKGRFTISRDNAKNTFYLQMISLKPEDPAVYYCAAEVDTVRDCVQGMDYCGQGTQVTVSS
  polyreactivity (PSR sort gate): low polyreactivity

## QVHLVESGGGLVEAGGSLRLSCADSGNIFAWYAMGWYRQAPGKERELVADISSLGGSTYYADSVKGRFTISRDNATNTVYLQMNSLKPEDTEVYYCAAVWYWTQDYDYWGQGTQVTVSS
  polyreactivity (PSR sort gate): low polyreactivity

## QVHLVESGGGLVHAGGSLRLSSAASGSIFGANTMGWYRQAPGKERELVAGITSGARTYYADSVKGRFTISRDNAKNTVYLQMNSLKPEDTAVYYCAAKYAWRRYGFWGQGTQVTVSS
  polyreactivity (PSR sort gate): high polyreactivity

## QVHLVESGGGLVHAGGSLRLTCAASGITSLRYAMGWYRQAPGKEREFVAAIRTIGGSTYYADSVKGRFTISRDNAKNTVYLEMNSLKPEDTPVYYCAALYFLYRSGSSHLDSWGQGTQVTVSS
  polyreactivity (PSR sort gate): high polyreactivity

## QVHLVESGGGLVQAAGILRLSSAPSGSIFPYYAMGWYRQAPGKEREFVAAINYAGGSTYYADSVKGRFTISRDNAKNTVYLQMNSLKPEDTAVYYCNARTFGPNGKHRYGYWGQGTQVTVSS
  polyreactivity (PSR sort gate): high polyreactivity

## QVHLVESGGGLVQAGCSLRLSCAASGFTYYYYAIGWYRQAPGTEMELVAAISSGGSTNYADSVKGRFTISRDNANNTVYLQMNSLKPEDTAVYYCAATQPYWWAYRYDYWGQGTKVTVSS
  polyreactivity (PSR sort gate): low polyreactivity

## QVHLVESGGGLVQAGGCLRLSCAASGSIVGYNTMGWYRQAPGKERALVAAISSSGTSTNYPDSVKGRFTISRDNAKNTVYLQMNSLKPDDTAVFYCNTVLRVWSRSGYDYWGQGSQVTVSS
  polyreactivity (PSR sort gate): high polyreactivity

## QVHLVESGGGLVQAGGILRLSCAASGSIFLYYAMGWYRQAPGKERELVAAITGGGGTNYADSVKGRFTISRDNAKNTFYLQMNSLKPEDTAVYYCGADPSGQFPYSYYNYDYDYWGQGTQVTVSS
  polyreactivity (PSR sort gate): low polyreactivity

## QVHLVESGGGLVQAGGRLRLSCAASGFTYYRYTMGWYRQAPGKERELVAAISWNGGRTYYADSVKGRFTISRDNAKNTVYLQMNSLKPEDTAVYYCAAVQHYTNRYPAVDYWGQGTQVTVSS
  polyreactivity (PSR sort gate): high polyreactivity

## QVHLVESGGGLVQAGGRLRLSCAASGNTFYQYAMGWYRQAPGKERELVAAISSSGGSTYYADTVKGRFTISRDNAKNTVYLQMNSLKPEDTGVYYCATDKWYGYYYWGQGTQVTVSS
  polyreactivity (PSR sort gate): low polyreactivity

## QVHLVESGGGLVQAGGRLRLSCAASGRIFYTYAMGWYRQAPGKERELVAAITSGGSTYYADSVKGRFTISRDNAKNTVYLQMNSLKPEDTAVYYCNKVSYYRNEYWGQGSQVTVSS
  polyreactivity (PSR sort gate): high polyreactivity

## QVHLVESGGGLVQAGGSHRLSCAASGFTIHRYAMGWYRQAPGKERELVAGITRRSGSTFYADSVKGRFTISRDNAKNTVFLQMNSLKPEDTAVYYCAATVPGLHWIYDYWGQGTQVTVSS
  polyreactivity (PSR sort gate): high polyreactivity

## QVHLVESGGGLVQAGGSLGLSCAASGNIFSSNAMGWYTQAPGKERELVDAITRSGGSTYYADSVKGRFTISRDNAKKTVYLQLNSQKPEDTAVYYGAARHYPRNSWGYDYWGQGTQVTVSS
  polyreactivity (PSR sort gate): high polyreactivity
